Source: patent publication US20180186897A1 (INSTITUTE FOR RESEARCH IN BIOMEDICINE, published 2018)
Substitutions are numbered along the chain they refer to.

B1: MGC1 (antibody)
VH: EVQLVESGGGLVQPGGSLRLSCVASGFNFRKSWMGWVRQAPGKGLEWVANIREDGSESFYADSVKGRFTVSRDNAKKSLYLHINSLRAEDTAVYYCARDRFCNDDEIHRHGQEDLPRPSISAAEGTVIPLGSHVTFVCRGPVGVQTFRLEKDSRSIYNDTENVSQPSPSESEARFRIDSVSEGNAGLYRCVYYKAPKWSAQSDYLELLVKGQEVTWALFTSCGGDGEEPDYDMDVRGKGTTVTVSS
VL: DIVMTQSPDSLAVSLGERATINCKSSQSVLYRSKNKNYLAWFQQKPGQPPKVLIYSTSTRASGVPDRFTGSGSGTDFTLTISSLQAEDVAVYYCLQYYITPYTFGQGTKLEIK
B2: MGC37 (antibody)
VH: EVQLVESGGDLVQPGGSLRLSCAASGFTFRNYWMSWVRQTPGKGLEWVANIRQDGSEKYYVDSVKGRFTISRDNAKNLLYLQMNSLRAEDTAVYYCVRDKFCSDENHMHVADDLPRPSISPEPGTVIPLGSHVTFVCRGPVGVQTFRLEKDRRSTYNDTEDVSQPSPSESEARFRIDSVTEGNAGLYRCVYYKPPKWSDQSDFLELLVKGEDVTWALFPHCGADGEDSDYYMDVWGKGTTVTVSS
VL: DIQLTQSPSTLSASVGDRVTISCRASQRLSRSLAWYQQRPRKAPNLLIYKASPLEIGGPSRFTGSGSGTEFTLTISSLQPDDSATYYCQQYSNYSYSFGQGTKLEIR
B3: MGD35 (antibody)
VH: QVQLQESGPGLVKPSGTLSLTCAVSGASISSINWWSWVRQTPEKGLEWIGQIHHNGSTNYNPSLKSRVAISVDKSKNQFSLKLTSFTAADTAVYYCATASSLKSQRDTNLPRPSLSAEPGTVIPLGSPVTFVCRGPVGVHTFRLERAGRSTYNDTEDVSHPSPSESEARFRIDSVSEGNAGPYRCVYYKSSKWSEESYCLDLLVKTEDVTWARPQPQLDPRACPQGDLRISTDFYYMDVWGKGTTVTVSS
VL: AIRMTQSPSSLSASTGDRVTITCRTSQAIGTYLAWYQQNPGKAPNLLIYNASTLQSGVPSRFSASGSGTDFTLTISGLQSDDFVTYFCQHYYNYPPAFGQGTRLEIQ
B4: MGD23 (antibody)
VH: QVQLQESGPGLVKPSGTLSLTCSVSGGSISSNKWWSWVRQSPGKGLEWIGEVYQTGITNYNPSLKGRVTMSVDKSKNQFSLRLTSVTAADTAVYYCATISQLRPQGDTEDLPRPSLSAEPGTVIPLGSHVTFVCRGPAGVETFRLERESRFTYNDTEDVSQASPSESEARFRIDSVSEGNAGPYRCLYYKARKWSDQSDYLELLVKGADVTWALPQSQLAPRACPQGELRISTDVFSMNVWGNGTTVTVSS
VL: AVRVTQSPTSLSASTGDRVTITCRTSQYVGNYLDWYQQKPGKAPKLLIHGVSTLQNGVPSRFSGSASGTDFTLNITCLQSEDSATYYCQQYYTSPPDFGQGTRLEIK
B5: MGD30 (antibody)
VH: QVQLQESGPGLVKPSETLSLSCAVTGGSITSSKWWTWVRQGPDKGLEWIGKIYHNGTTNYNPSLKSRVAMSVDKSRNQFSLRLTSVTAADTALYYCATASPFKSHHRTTEKLPRPSISAEPGTVIPLGSRVTFVCRGPVGVQTFRLERETSFTYNDTEDVSQVSPSESEARFRIDSVSEGYAGPYRCVYYKAPKWSEQSDYLDLLVKGEDVTWALTQPQLDPRACPQGDLRMSTDIYCMDVWGKGTTVTVSS
VL: AIRLTQSPSSLSASIGDRVTITCRASQDISTFLAWYQQESGKAPRLLIFAASTLQTGVPSRFSGSGSGTDFTLTISGLQSEDFATYYCQQYYCFPPDFGQGTRLDIK
B6: MGD33 (antibody)
VH: B5 VH with Q1H, R76K, L93V, S151R, F152S
VL: B5 VL with F32Y, T53S
B7: MGC2 (antibody)
VH: EVQLVESGGGLVQPGGSLRLSCAASGFTFSNFWMGWVRQTPGKGLEWVANIKEDGSEKYYVDSVRGRFTISRDSAKNSLYLQMNSLRAEDTAVYYCVRERFCSNHIHKEEHLPRPSISPEPGTVITLGSHVTFVCRGPVGVQTFRLEKDSRSTYNDTEDVSQPSPSESEARFRIDSVSEGYAGLYRCLYYKPPKWSEQSDYLELLVKGDDVTWALYPSCGGDGEASDYNMDVWGKGTTVTVSS
VL: DIQMTQSPSTLSASVGDRVTISCRASQRFSGWLAWYQQKPGKAPNLLIYKASPLAGGGPSRFSGSGSGTDFTLTISSLQPDDSATYYCQHYSNYSYTFGQGTKLEIR
B8: MGD34 (antibody)
VH: EVQLVESGPGLMKTSGTLSLTCAVSGDYVNTNRRWSWVRQAPGKGLEWIGEVHQSGRTNYNPSLKSRVTISVDKSKNQFSLKVDSVTAADTAVYYCARASPLKSQRDTEDLPRPSISAEPGTVIPLGSHVTFVCRGPVGVQTFRLERERNYLYSDTEDVSQTSPSESEARFRIDSVNAGNAGLFRCIYYKSRKWSEQSDYLELVVKGEDVTWALSQSQVDPRACPQGELPISTDIYYVDVWGNGTTFTVSS
VL: AIRMTQSPSSLSASPGDKVSITCRASQHINDSLAWFQQRPGKAPKLLIYGASNLHSGVPSRFSGTGSGTDFTLTITGLQSEDFATYFCQQCNCFPPDFGQGTRLEIK
B9: MGC35 (antibody)
VH: EVQLVESGGGLVQPGGSLRLSCEASGFNSRSYWMTWVRQAPGKGLEWVASINQDATEKNYVDSVKGRFTISRDTAKNSLYLQMNSLRAEDTAVYYCARDRFCGGESHLHGQEDLPRPSISAEPGSVIPLGSLVTFVCRGPVGVHTFRLERGWTYNDTEDVSQAGPSESEARFRMDSVREGNAGLYRCIYYKPPKWSEQSAYLELRVKGGDVTWALLTYCGGDGEESDYPMDVWGKGTTVTVSS
VL: QTVVTQEPSLTVSPGGTVTLTCASSTGPVTSAYYPNWFQQKPGQAPRSLIYNINKKHSWTPDRFSGSLLGGKAALTLSGVQPEDEADYYCLLSCGGAQPWVFGGGTKLTVQ
B10: MGC4 (antibody)
VH: EVQLVESGGGLVQPGGSLRLSCEGSGFNSRSYWMTWVRQAPGKGLEWVASINQDGTEKNYVDSVKGRFTISRDSAKNSLYLQMSSLRADDTAVYYCARDRFCGGESHLHGEEDLPRPSISAEPDTVIPLGSHVTFVCRGPVGVHTFRLERGWRYNDTEDVSQAGPSESEARFRIDSVREGNAGLYRCIYYIAPKWSEQSDYLELRVKGGDVTWALLTYCGGDGEESDYPMDVWGKGTTVTVSS
VL: B9 VL with N52S, D62A
B11: MGC36 (antibody)
VH: B10 VH with Q3V, G24A
VL: B9 VL with N52S, D62A
B12: MGD39 (antibody)
VH: QVRLQESGPGLVKPSGTLSLTCTVSGGSISAYRWWSWVRQAPGKGLEWIGQVYNDGNTNYNPSLKGRVAMSVDKSKNRFSLRLASVTAADTAVYYCATISPLRPQSDTDDLPRPSISAEPGTVIPLGSHVTFVCRGPIGVQTFRLERERRSLYSDTEDVSQVSPFASEARFRIDSVSEGNAGPYRCIYYKDRKWSDQSDYLELLVKGEDVTWALPQSQLAPRACPQEELNISTDIFSMNVWGKGTTVTVSS
VL: AIRMTQSPASLSASIGDRVTITCRTSHDVGNYLDWYQQKPGKAPKLLIHGASTLQTGVPSRFSGSGAGTDFTLNITCLQSGDFAMYYCQQYYSSPPGFGQGTRLEIK

Assays:
Assay in all cases: flow cytometry, staining of IEs
[1] = target: erythrocytes infected with P. falciparum field isolate 11019
[2] = target: erythrocytes infected with P. falciparum field isolate 9775
[3] = target: erythrocytes infected with P. falciparum field isolate 10975
[4] = target: erythrocytes infected with P. falciparum field isolate 9605
[5] = target: erythrocytes infected with P. falciparum field isolate 10936
[6] = target: erythrocytes infected with P. falciparum field isolate 11014
[7] = target: erythrocytes infected with P. falciparum field isolate 9106
[8] = target: erythrocytes infected with P. falciparum field isolate 9215

Row | Binder | % parasite recognition [1] [%] | % parasite recognition [2] [%] | % parasite recognition [3] [%] | % parasite recognition [4] [%] | % parasite recognition [5] [%] | % parasite recognition [6] [%] | % parasite recognition [7] [%] | % parasite recognition [8] [%]
1 | B1 | 32.7 | 5.7 | 1.4 | 19.5 | 2 | 3.4 | 6.7 | 14.9
2 | B2 | 51.8 | 4 | 7.5 | 22.2 | 4.1 | 5.8 | 7.2 | 9.9
3 | B3 | 6.3 |  |  | 3.6 |  |  | 6.1 | 
4 | B4 | 7.8 | 7.3 | 3.4 | 14.7 | 4.3 | 6.3 | 5.7 | 11.4
5 | B5 | 4.4 | 5.6 | 6.5 | 7.4 | 2.6 | 3.4 | 4.2 | 9
6 | B6 | 9.6 | 8.5 | 14.2 | 12.3 | 6.1 | 7 | 4.3 | 15.5
7 | B7 | 11.9 | 2.9 | 2.6 | 22.4 | 2.8 | 1.5 | 5.6 | 28.8
8 | B8 | 46.6 | 16 | 11.2 | 28.4 | 8.1 | 13 | 5 | 35.7
9 | B9 | 3.2 | 7.2 | 7.4 | 15.9 | 2.5 | 3.6 | 6.5 | 19.5
10 | B10 | 31.1 | 6.1 | 6.7 | 22.2 | 2.3 | 3.6 | 6.7 | 21.7
11 | B11 | 17.9 | 6.2 | 8.6 | 17.9 | 2.7 | 4.6 | 6.9 | 12.4
12 | B12 | 43 | 15 | 14.1 | 31.7 | 10.5 | 11.5 | 13.7 | 37.4
